Results: patent publication US20210277101A1 (UNIVERSIT LAVAL, published 2021)

How the values were obtained:
[1] = target: T1, S100A9 C-term (C) peptide (human); assay: dot blot on PVDF
T1 construct: also called C-terminal peptide
T1 peptide: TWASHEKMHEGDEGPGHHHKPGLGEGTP
Description: FIG. 7 illustrates that 6B4 recognizes the C-terminal peptide of S100A9. Recombinant S100A8 and S100A9 (1 μg), PBS1×, N-terminal (N), Hinge (H) and C-terminal (C) peptides (10 and 50 μg) were put onto PVDF membrane to perform dot blot analysis using the mAb 6B4.
A dot blot was first performed to verify the ability of the mAb 6B4 to recognize these regions of S100A9. Briefly, 1 μg of recombinant S100A9 or S100A8 (negative control), and 10 and 50 μg of S100A9 peptides were deposited on PVDF membrane. The dried membrane was then blocked with TBS/0.1% Tween/milk 5% 30 min at room temperature under gentle agitation and labelled with 1 μg/ml of 6B4 mAb for 1 hr at RT. The membrane was extensively washed with TBS/0.1% Tween, then labelled with goat anti-mouse ( 1/20 000) in blocking buffer for 1 hr at RT under gentle agitation. The membrane was then extensively washed and visualized by enhanced chemiluminescence (ECL) as described by the manufacturer (PerkinElmer).

S100A9 peptide C7 = target: T2, S100A9 peptide C7 (human); assay: direct ELISA on coated peptides
T2 construct: also called 10 last amino acid of the C-terminal region of S100A9
T2 peptide: HKPGLGEGTP

S100A9 peptide C7a = target: T3, S100A9 peptide C7a (human); assay: direct ELISA on coated peptides
T3 peptide: PGLGEGTP

Measured: binding result

B1: mouse monoclonal antibody 6B4 (antibody, IgG1, V domains shown)
VH: QVQLQQPGSELVRPGASVKLSCKASGYTFTTYWIHWVRQRPGQGLEWIGNIYPGGDSSNYDEKVKSRATLTVDTSSSTAYMQLSSLTSEDSAVYYCSRWGIWGQGTLVTVSA
VL: ENVLTQSPAIMSASPGEKVTMTCSARSSVSYVHWYQQKSNTSPKLWIYDTSKLASGVPGRFSGSGSGNSYSLTISSMEAEDVATYYCFQGSGYPLTFGAGTKLELK
notes: also called mAb 6B4; 6B4 mAb
binds: all assays above
